Assay results taken from patent publication US20170096486A1, “AGENTS INHIBITING GRANULIN FOR TREATMENT OF CANCER” (priority 2014, published 2017).

System: MCF7 cells
Experiment: Proliferation of MCF7 cells after peptide treatment
Format: cell-based
Conditions: MCF7 cells (FIG. 5)

B1: HB-EGF: peptide mimetic HB-EGF (R&D Systems 259-HE-050) (protein, UniProt Q99075 63-148, looked up)
Heparin-binding EGF-like …: DLQEADLDLLRVTLSSKPQALATPNKEEHGKRKKKGKGLGKKRDPCLRKYKDFCIHGECKYVKELRAPSCICHPGYHGERCHGLSL
  proliferation after peptide treatment: does not affect proliferation
